Source: US20190309094A1

Legend:
[1] = target: CD3 on Jurkat luciferase reporter cells (Homo sapiens (Human)) (UniProt P07766); assay: flow cytometry on Jurkat_NFAT_Luc2P cells, PE-A; histogram shifted to about 10^4
hCD3εγ chains (human) [2] = target: hCD3εγ chains (human) (UniProt P07766); assay: ELISA on hCD3εγ chains, curve fit
hCD3εγ chains (human) [3] = target: hCD3εγ chains (human) (UniProt P07766); assay: ELISA on hCD3εγ chains, curve fit (unit from the axis)
[4] = target: CD3 on Jurkat luciferase reporter cells (Homo sapiens (Human)) (UniProt P07766); assay: flow cytometry on Jurkat_NFAT_Luc2P cells, control staining in all three panels
[5] = target: CD3 on Jurkat luciferase reporter cells (Homo sapiens (Human)) (UniProt P07766); assay: flow cytometry on Jurkat_NFAT_Luc2P cells, FITC-A; histogram shifted to between 10^3 and 10^4

UCHT1 (antibody), sequence (V domain): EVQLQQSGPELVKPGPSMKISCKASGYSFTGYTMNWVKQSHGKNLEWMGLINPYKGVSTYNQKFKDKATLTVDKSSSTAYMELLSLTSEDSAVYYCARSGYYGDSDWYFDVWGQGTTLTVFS
UCHT1 (antibody), sequence (VL): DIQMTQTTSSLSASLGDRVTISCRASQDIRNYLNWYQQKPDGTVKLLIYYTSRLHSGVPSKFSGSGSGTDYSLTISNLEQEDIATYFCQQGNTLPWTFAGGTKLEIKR

A Fold (fold over hIgG) [1] of 58 was found for Commercial CD3e(HiT3a) (antibody) in this work.
A Bmax (hCD3εγ chains (human) [2]) of 1.52 OD 450 nm and a Kd (hCD3εγ chains (human) [3]) of 33.3 nM were found for UCHT1 (antibody) in this work.
A Fold (fold (reference)) [4] of 1 was found for hIgG (antibody) in this work.
A Fold (fold over hIgG) [5] of 45 was found for mOKT3 (antibody) in this work.
